Reference: article PMC10333884 (2023)
Non-standard residues stand in square brackets, D forms with d. No end group written: not given here. pS = N[C@@H](COP(=O)(O)O)C(=O)O

T1: Clathrin N‐terminal domain (NTD) (human, UniProt Q00610 1-364)
T1 chain: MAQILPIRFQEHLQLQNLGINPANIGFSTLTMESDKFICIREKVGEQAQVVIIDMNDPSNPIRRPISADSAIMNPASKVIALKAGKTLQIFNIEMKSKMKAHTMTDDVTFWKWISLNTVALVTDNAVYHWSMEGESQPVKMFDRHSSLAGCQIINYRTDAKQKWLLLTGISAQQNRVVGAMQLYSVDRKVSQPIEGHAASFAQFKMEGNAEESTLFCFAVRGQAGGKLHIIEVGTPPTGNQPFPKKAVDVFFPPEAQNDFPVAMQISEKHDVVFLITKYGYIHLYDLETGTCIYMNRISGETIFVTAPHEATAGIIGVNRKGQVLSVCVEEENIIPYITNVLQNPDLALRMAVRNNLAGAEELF

T2: TSG101 UEV (human, UniProt Q99816 2-145)
T2 chain: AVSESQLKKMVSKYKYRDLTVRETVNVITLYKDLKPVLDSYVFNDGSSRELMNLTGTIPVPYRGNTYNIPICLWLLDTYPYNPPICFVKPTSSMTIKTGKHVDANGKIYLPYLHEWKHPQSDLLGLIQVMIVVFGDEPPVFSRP


Biological target: T1, Clathrin N‐terminal domain (NTD)
Test: FP

| IC50 [µM] | Binder |
| --- | --- |
| 11 | GGNLITF[pS]PLQPGEF [pS839 HURP_(832–846)] |
| 70 | GGNLITFEPLQPGEF [HURP_(832–846), phosphomimetic (E)] |
| 11 | YRHISFGGNLITF[pS]PLQPGEF [pS839 HURP_(826–846) peptide] |
| 318 | GGNLITFSPLQPGEF [HURP_(832–846), wild‐type] |

These binders were tested against MAP1LC3A (human) (assay: FP).

| IC50 [µM] | Binder |
| --- | --- |
| 11 | KKQLKRFETEEFVLL [ATG4C_(444–458), phosphomimetic (E)] |
| 5.5 | KKQLKRF[pS]TEEFVLL [ATG4C_(444–458), phosphorylated (pS)] |
| 17 | KKQLKRFSTEEFVLL [ATG4C_(444–458), wild‐type] |

What follows are binders tested against SNX27 PDZ (human, UniProt Q96L92 43-136) (assay: FP).

| IC50 [µM] | Binder |
| --- | --- |
| 1300 | GMVSSTSFNGG [DAXX_(606–616), wild‐type] |
| 210 | NLLLERDTSFTVCPD [CDC25C_(30–44), wild‐type] |
| 1800 | NLLLERDTEFTVCPD [CDC25C_(30–44), phosphomimetic (E)] |
| 1000 | NLLLERDT[pS]FTVCPD [CDC25C_(30–44), phosphorylated (pS)] |

Biological target: T2, TSG101 UEV
Test: FP

| IC50 [µM] | Binder |
| --- | --- |
| 465 | NGCSSPTAPLSPMSP [GJA1_(269–283), wild‐type] |
| 29 | HSGNVTPTAPPYLQES [PIP4P2_(17–32), wild‐type] |
| 34 | QSIAREPSAPSIPTP [PDCD6IP_(711–725), wild‐type] |
